How the values were obtained:
[1] = target: ZF-NB23
[2] = target: ZF-NB23; remark: listed apart in the source
[3] = target: ZF-NB23; remark: listed apart in the source
[4] = target: ZF-NB23_D1
[5] = target: NB15_C1-T7 RNAP

Chain of ZF-NB23 (heavy, as listed by the source): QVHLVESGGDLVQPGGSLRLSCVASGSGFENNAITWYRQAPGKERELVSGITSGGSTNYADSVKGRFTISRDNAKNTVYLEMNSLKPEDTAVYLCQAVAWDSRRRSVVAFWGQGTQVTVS

**Q.** Which MDC (minimal detectable concentration of Spike, trehalase / glucose read-out) [1] does the source give for “recombinant trimeric SARS-CoV-2 spike protein (from UniProt P0DTC2 14-1273) (natural protein)” here?
**A.** The MDC (minimal detectable concentration of Spike, trehalase / glucose read-out) was 330 pM.

**Q.** What about the MDC (minimal detectable concentration of Spike in the ZF-NB23 / NB15-T7 RNAP sensor, 10% nasal swab sample) [2] of the same substance?
**A.** Its MDC (minimal detectable concentration of Spike in the ZF-NB23 / NB15-T7 RNAP sensor, 10% nasal swab sample) is 40 pM.

**Q.** And the MDC (minimal detectable concentration of Spike in the ZF-NB23 / NB15-T7 RNAP sensor) [3]?
**A.** Its MDC (minimal detectable concentration of Spike in the ZF-NB23 / NB15-T7 RNAP sensor) is 13 pM.

**Q.** What about the MDC (minimal detectable concentration of Spike in the fully de novo sensor) [4] of the same substance?
**A.** Its MDC (minimal detectable concentration of Spike in the fully de novo sensor) is 33.3 nM.

**Q.** What about the MDC (minimal detectable concentration of Spike in the fully de novo sensor) [5] of the same substance?
**A.** Its MDC (minimal detectable concentration of Spike in the fully de novo sensor) is 33.3 nM.
